Columns and labels:
[1] = target: T1, Atg7 (residues 1–613) (S. cerevisiae, UniProt P38862 1-613, catalytic Cys507 linked through bismaleimidoethane (BMOE) to Atg3 Cys234); experiment: crystal structure
T1 sequence (looked up): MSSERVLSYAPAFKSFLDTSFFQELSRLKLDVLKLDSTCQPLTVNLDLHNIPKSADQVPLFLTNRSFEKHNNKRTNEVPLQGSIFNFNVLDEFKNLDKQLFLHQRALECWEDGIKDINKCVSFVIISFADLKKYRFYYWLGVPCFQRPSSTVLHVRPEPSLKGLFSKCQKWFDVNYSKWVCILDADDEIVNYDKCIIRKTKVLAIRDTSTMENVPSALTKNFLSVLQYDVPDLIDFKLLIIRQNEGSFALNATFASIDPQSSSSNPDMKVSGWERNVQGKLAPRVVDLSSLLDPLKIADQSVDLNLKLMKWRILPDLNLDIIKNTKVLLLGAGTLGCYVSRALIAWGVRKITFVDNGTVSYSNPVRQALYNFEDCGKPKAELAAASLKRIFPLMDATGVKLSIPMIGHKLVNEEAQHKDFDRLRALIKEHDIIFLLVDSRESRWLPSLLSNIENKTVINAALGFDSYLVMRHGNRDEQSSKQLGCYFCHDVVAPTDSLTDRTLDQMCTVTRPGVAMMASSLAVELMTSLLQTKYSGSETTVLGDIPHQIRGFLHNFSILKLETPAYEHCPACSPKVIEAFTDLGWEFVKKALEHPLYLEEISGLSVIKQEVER

[2] = target: T2, Atg7 with a Gly-Gly-Ser-Gly insertion after Leu291 (S. cerevisiae, UniProt P38862 1-630, Gly-Gly-Ser-Gly insertion after Atg7’s Leu291); experiment: cross-linking
T2 sequence (looked up): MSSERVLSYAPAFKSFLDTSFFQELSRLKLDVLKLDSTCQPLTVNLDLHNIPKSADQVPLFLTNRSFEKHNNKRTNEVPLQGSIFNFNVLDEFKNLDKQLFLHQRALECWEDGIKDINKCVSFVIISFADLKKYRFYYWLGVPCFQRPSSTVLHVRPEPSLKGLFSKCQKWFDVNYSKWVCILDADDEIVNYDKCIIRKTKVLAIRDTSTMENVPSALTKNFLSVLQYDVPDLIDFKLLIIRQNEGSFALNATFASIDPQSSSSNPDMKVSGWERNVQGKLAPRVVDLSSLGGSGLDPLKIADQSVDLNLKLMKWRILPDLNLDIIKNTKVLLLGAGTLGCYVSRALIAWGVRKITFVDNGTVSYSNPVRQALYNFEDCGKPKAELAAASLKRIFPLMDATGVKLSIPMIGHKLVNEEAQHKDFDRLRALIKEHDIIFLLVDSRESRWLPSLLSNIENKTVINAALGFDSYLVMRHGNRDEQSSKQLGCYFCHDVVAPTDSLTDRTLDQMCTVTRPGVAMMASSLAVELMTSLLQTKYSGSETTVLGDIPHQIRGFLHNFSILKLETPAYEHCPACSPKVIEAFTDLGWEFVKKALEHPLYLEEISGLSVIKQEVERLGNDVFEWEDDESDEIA

[3] = target: T3, Atg7 D47A N50A K53A (S. cerevisiae, UniProt P38862 1-630, D47A | N50A | K53A); experiment: cross-linking
T3 sequence (looked up): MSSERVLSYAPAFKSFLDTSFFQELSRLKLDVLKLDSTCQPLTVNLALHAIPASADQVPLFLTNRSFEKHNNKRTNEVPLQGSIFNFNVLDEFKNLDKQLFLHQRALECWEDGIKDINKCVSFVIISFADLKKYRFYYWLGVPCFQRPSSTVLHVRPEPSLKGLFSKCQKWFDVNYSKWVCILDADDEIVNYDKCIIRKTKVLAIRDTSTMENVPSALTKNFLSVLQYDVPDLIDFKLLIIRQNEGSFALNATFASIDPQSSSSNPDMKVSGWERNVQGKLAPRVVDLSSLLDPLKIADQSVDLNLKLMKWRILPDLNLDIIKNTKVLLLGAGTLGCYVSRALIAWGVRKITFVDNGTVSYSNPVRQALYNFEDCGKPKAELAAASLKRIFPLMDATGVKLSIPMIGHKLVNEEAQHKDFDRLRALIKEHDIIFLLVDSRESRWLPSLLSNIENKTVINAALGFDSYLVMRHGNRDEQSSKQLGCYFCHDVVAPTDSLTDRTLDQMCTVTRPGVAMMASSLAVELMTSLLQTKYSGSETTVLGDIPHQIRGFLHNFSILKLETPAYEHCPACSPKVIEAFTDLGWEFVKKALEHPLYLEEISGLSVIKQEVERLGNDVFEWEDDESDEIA

Measured: binding result

B1: Atg3(C41A C76A C83A) (enzyme, S. cerevisiae)
chain: MIRSTLSSWREYLTPITHKSTFLTTGQITPEEFVQAGDYLAHMFPTWKWNEESSDISYRDFLPKNKQFLIIRKVPADKRAEQAVEVEGPDVIMKGFAEDGDEDDVLEYIGSETEHVQSTPAGGTKDSSIDDIDELIQDMEIKEEDENDDTEEFNAKGGLAKDMAQERYYDLYIAYSTSYRVPKMYIVGFNSNGSPLSPEQMFEDISADYRTKTATIEKLPFYKNSVLSVSIHPCKHANVMKILLDKVRVVRQRRRKELQEEQELDGVGDWEDLQDDIDDSLRVDQYLIVFLKFITSVTPSIQHDYTMEGW
modifications: Cys234 reacted with bismaleimidoethane (BMOE)
binds: all assays above

— paper PMC3515690 (Nature structural & molecular biology, 2012)
